This data set concerns the molecule itself. The experiment in a line: SEC. On the technique in general: SEC sorts molecules by how far they enter the pores of the column.

Broadly, the stoichiometry N is a count of units in the complex or per binding partner.

B1: human TYW5 (tRNA yW-synthesizing enzyme 5), wild type (enzyme)
chain: MAGQHLPVPRLEGVSREQFMQHLYPQRKPLVLEGIDLGPCTSKWTVDYLSQVGGKKEVKIHVAAVAQMDFISKNFVYRTLPFDQLVQRAAEEKHKEFFVSEDEKYYLRSLGEDPRKDVADIRKQFPLLKGDIKFPEFFKEEQFFSSVFRISSPGLQLWTHYDVMDNLLIQVTGKKRVVLFSPRDAQYLYLKGTKSEVLNIDNPDLAKYPLFSKARRYECSLEAGDVLFIPALWFHNVISEEFGVGVNIFWKHLPSECYDKTDTYGNKDPTAASRAAQILDRALKTLAELPEEYRDFYARRMVLHIQDKAYSKNSE
Take B1: the “stoichiometry N” value is 2.

(Values after PMC3045595 (Nucleic Acids Research, 2010).)
